Publication PMC3799859, “Sigma-1 Receptor Chaperone at the ER-Mitochondrion Interface Mediates the Mitochondrion-ER-Nucleus Signaling for Cellular Survival” (PLoS ONE, 2013)

Molecular target: the molecule itself
Experiment: non-reducing gel and blot of the purified protein; ΔIRE1-V5/His purified on a Ni column, non-reducing condition (without β-mercaptoethanol)

B1: ΔIRE1-V5/His (ER lumenal domain of human IRE1) (domain or fragment, UniProt O75460 19-443, looked up)
chain: IFGSTSTVTLPETLLFVSTLDGSLHAVSKRTGSIKWTLKEDPVLQVPTHVEEPAFLPDPNDGSLYTLGSKNNEGLTKLPFTIPELVQASPCRSSDGILYMGKKQDIWYVIDLLTGEKQQTLSSAFADSLCPSTSLLYLGRTEYTITMYDTKTRELRWNATYFDYAASLPEDDVDYKMSHFVSNGDGLVVTVDSESGDVLWIQNYASPVVAFYVWQREGLRKVMHINVAVETLRYLTFMSGEVGRITKWKYPFPKETEAKSKLTPTLYVGKYSTSLYASPSMVHEGVAVVPRGSTLPLLEGPQTDGVTIGDKGECVITPSTDVKFDPGLKSKNKLNYLRNYWLLIGHHETPLSASTKMLERFPNNLPKHRENVIPADSEKKSFEEVINLVDQTSENAPTTVSRDVEEKPAHAPARPEAPVDSMLKD
notes: human IRE1, lumenal domain (ΔIRE1), lacking the cytoplasmic domain; Most of the purified protein is a dimer under non-reducing conditions; a portion was pretreated with β-mercaptoethanol to keep it monomeric; source: CHO, transfected (pcDNA3.1); in lysate, or purified from the cell extract on Ni-NTA agarose; not shown: V5, C-terminal, kept; His, C-terminal, kept
  stoichiometry N: 2
